From PMC10004559, “Identification of residues involved in allosteric signal transmission from amino acid binding site of pyruvate kinase muscle isoform 2” (PLOS ONE, 2023)

B1: PKM2 N75L (enzyme)
chain: not shown
notes: Pyruvate kinase muscle isoform 2 (PKM2), human, UniProt P14618, with N75L; cloned in pET28a; No tag cleavage is described
B2: PKM2 R106A (enzyme)
chain: not shown
notes: Pyruvate kinase muscle isoform 2 (PKM2), human, UniProt P14618, with R106A; cloned in pET28a; No tag cleavage is described
B3: PKM2 N70D (enzyme)
chain: not shown
notes: Pyruvate kinase muscle isoform 2 (PKM2), human, UniProt P14618, with N70D; cloned in pET28a; not shown: His6, N-terminal, kept

Target: the molecule itself
Assay: SEC; 0.1 mg/ml enzyme in storage buffer (20-50 mM Tris-HCl pH 7.5, 150 mM KCl, 5% glycerol, 0.5 mM EDTA) with 10 mM THP, incubated 15 min without or with 10 mM Asn/Asp/Val/Cys; Superdex 200 10/300 GL, 0.5 ml/min; self-association, tetramer against dimer/monomer

Stoichiometry N, 4:
B1
B2
B3
